Reference: US20230038638A1, “COMPLEMENT FACTOR I-RELATED COMPOSITIONS AND METHODS” (published 2023)
Values belong to the molecule of their own block, whether it stands above or below them.

Tests used:
human C4b (human) = molecular target: T1, human C4b (human) (UniProt P0C0L4)
T1 sequence: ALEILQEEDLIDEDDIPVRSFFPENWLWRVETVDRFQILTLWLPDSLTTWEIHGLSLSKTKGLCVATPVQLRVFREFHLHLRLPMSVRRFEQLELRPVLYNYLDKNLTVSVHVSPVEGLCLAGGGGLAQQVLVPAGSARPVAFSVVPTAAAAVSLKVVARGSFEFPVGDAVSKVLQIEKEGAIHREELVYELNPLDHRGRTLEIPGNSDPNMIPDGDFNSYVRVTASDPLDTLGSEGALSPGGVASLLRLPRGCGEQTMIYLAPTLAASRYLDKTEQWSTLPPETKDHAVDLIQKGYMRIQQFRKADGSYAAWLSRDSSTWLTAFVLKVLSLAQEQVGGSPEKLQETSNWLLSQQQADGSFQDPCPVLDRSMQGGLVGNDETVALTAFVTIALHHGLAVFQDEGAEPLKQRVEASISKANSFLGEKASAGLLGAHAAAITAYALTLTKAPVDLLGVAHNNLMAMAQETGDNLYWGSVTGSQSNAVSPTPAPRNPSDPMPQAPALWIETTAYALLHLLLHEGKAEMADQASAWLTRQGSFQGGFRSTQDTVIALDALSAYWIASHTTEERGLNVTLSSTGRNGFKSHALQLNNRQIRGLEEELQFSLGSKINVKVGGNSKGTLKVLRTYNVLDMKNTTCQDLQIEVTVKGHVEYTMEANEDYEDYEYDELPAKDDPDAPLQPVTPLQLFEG

[1] = molecular target: soluble human C3b (human) (UniProt P01024)

Molecule: CFI-HSA variant Y372G (enzyme)
C4b Screen Ref Fold (fold of reference) (human C4b (human)): 0.08 | iC3b Screen Ref Fold (fold of reference) [1]: 0

Molecule: CFI-HSA variant Y393G (enzyme)
C4b Screen Ref Fold (fold of CFI-HSA wild type) (human C4b (human)): -0.01 | iC3b Screen Ref Fold (fold of CFI-HSA wild type) [1]: 0.71

Molecule: CFI-HSA variant Y403F; D425K; E457G; N531G (enzyme)
C4b Screen Ref Fold (fold of CFI-HSA wild type) (human C4b (human)): 3.85 | iC3b Screen Ref Fold (fold of CFI-HSA wild type) [1]: 0.22

Molecule: CFI-HSA variant Y408F; K504Y (enzyme)
C4b Screen Ref Fold (fold of CFI-HSA wild type) (human C4b (human)): 1.67 | iC3b Screen Ref Fold (fold of CFI-HSA wild type) [1]: 0.97

Molecule: CFI-HSA variant Y408M; E530F (enzyme)
C4b Screen Ref Fold (fold of CFI-HSA wild type) (human C4b (human)): 0.11 | iC3b Screen Ref Fold (fold of CFI-HSA wild type) [1]: 0.95

Molecule: CFI-HSA variant Y408M; F537K; K504R; P558S (enzyme)
C4b Screen Ref Fold (fold of CFI-HSA wild type) (human C4b (human)): 0.07 | iC3b Screen Ref Fold (fold of CFI-HSA wild type) [1]: 1.26

Molecule: CFI-HSA variant Y408M; K504R (enzyme)
C4b Screen Ref Fold (fold of CFI-HSA wild type) (human C4b (human)): 0.09 | iC3b Screen Ref Fold (fold of CFI-HSA wild type) [1]: 0.83

Molecule: CFI-HSA variant Y408M; S507A (enzyme)
C4b Screen Ref Fold (fold of CFI-HSA wild type) (human C4b (human)): -0.02 | iC3b Screen Ref Fold (fold of CFI-HSA wild type) [1]: -0.04

Molecule: CFI-HSA-FH_CCP1-4 fusion, Y408L; N531G; E457G; E461Q; R462K; F464Y; GGSSGG (SEQ ID NO: 6); CCP_1-4 (enzyme)
C4b Screen Ref Fold (fold of reference) (human C4b (human)): 1.28 | iC3b Screen Ref Fold (fold of reference) [1]: 0.04

Molecule: CFI-HSA-FH_CCP1-4 fusion, Y408L; N531G; GGSSGG (SEQ ID NO: 6); CCP_1-4 (enzyme)
C4b Screen Ref Fold (fold of reference) (human C4b (human)): 1.4 | iC3b Screen Ref Fold (fold of reference) [1]: 0.05

B1: WT mouse CFI; His tag (enzyme)
chain: RSPSASDLPQEELVDQKCLLQKYTHRSCNKVFCQPWQRCIEGTCICKLPYQCPRAGTPVCAMNGRSYPTYCHQKSFECLHPEIKFSHNGTCAAEGKFNVSLIYGRTKTEGLVQVKLVDQDERMFICKNSWSMAEANVACVDLGFPLGVRDIQGSFNISGNLHINDTECLHVHCRGVETSLAECAFTKRRTELSNGLAGVVCYKQDADFPTSLSFQCVNGKHIPQEKACNGVNDCGDQSDELCCKGCRGNASLCKSGVCIPDQYKCNGEVDCITGEDESRCEEDRQQNIPKGLARSAQGEAEIETEETEMLTPGMDNERKRIKSLLPKLSCGVKRNTHTRRKRVIGGKPANVGDYPWQVAIKDGQRITCGGIYIGGCWILTAAHCVRPSRAHSYQVWTALLDWLKPNSQLGIQTVKRVIVHEKYNGATFQNDIALIEMKMHTGKKECELPNSVPACVPWSPYLFQPNDRCIISGWGRGKDNQKVYSLRWGEVDLIGNCSQFYPDRYYEKEMQCAGTRDGSIDACKGDSGGPLVCEDINNVTYVWGIVSWGENCGKPEFPGVYTRVANYFDWISYHVGRSLVSQHNV
C4b Screen Ref Fold (fold of CFI-HSA wild type) (human C4b (human)): -0.08 | iC3b Screen Ref Fold (fold of CFI-HSA wild type) [1]: 0.03

Now from value to molecule:

C4b Screen Ref Fold (fold of reference) (human C4b (human)): 0.04 | iC3b Screen Ref Fold (fold of reference) [1]: -0.01
Molecule: CFI-HSA variant W381G; V390G (enzyme)

C4b Screen Ref Fold (fold of CFI-HSA wild type) (human C4b (human)): 1.77 | iC3b Screen Ref Fold (fold of CFI-HSA wild type) [1]: 1.92
Molecule: CFI-HSA variant Y408F; N531M (enzyme)

C4b Screen Ref Fold (fold of CFI-HSA wild type) (human C4b (human)): 0.07 | iC3b Screen Ref Fold (fold of CFI-HSA wild type) [1]: -0.02
Molecule: CFI-HSA variant Y408F; S507A (enzyme)

C4b Screen Ref Fold (fold of CFI-HSA wild type) (human C4b (human)): 0.05 | iC3b Screen Ref Fold (fold of CFI-HSA wild type) [1]: 0.01
Molecule: CFI-HSA variant Y408M; E530F; F537K; K504R (enzyme)

C4b Screen Ref Fold (fold of CFI-HSA wild type) (human C4b (human)): 0.06 | iC3b Screen Ref Fold (fold of CFI-HSA wild type) [1]: 1.13
Molecule: CFI-HSA variant Y408M; P558S (enzyme)

C4b Screen Ref Fold (fold of reference) (human C4b (human)): -0.05 | iC3b Screen Ref Fold (fold of reference) [1]: 0.32
Molecule: CFI-HSA variant Y408S (enzyme)
